Laboratory results reported in the DeepSol protein solubility set.

Assay: soluble on expression in E. coli; label from the status in PepcDB or PDB records

Row | Sequence | soluble on expression in E. coli
1 | MAVSNIWQSYSSSNLHWIYPLYTNNCSQNVKSSFTAEILLKRRCNDIQDILNDRMIELLLQGACDPNKQQNYLQGMSPSRKKKTHVKKFLKKQKKSRKPITLEHGCLSGPVTLRFGNFAGIRDLRGTRCPLHGIKHGVHPKPGERCACQQATLFPSPLARFSCDQSAVLGCAASSTRVYDSIADEFSSLYF | not soluble
2 | MGSDKIHHHHHHYPEPVLNPESCTSIMVGKKASADGSVMTSHTCDSNYRTWMDIVPSASYDHDTTTTVYTGRMHTEYAEGTRGMIAKGTLPEARSTYQFLNTAYPCLNEKQLGIGETTITGRKALVNKKGMFMIEELQRIALQRCTTARDAIRLMGELIEKYGYGDWGECLTIADPKEVWHFEVFGEGPDKIGGVWAAIRIPDDHVGVSANIPRISKVDPSDKENCMASANVFEVAKRMGFWDGKKPFRFWEAYGGGNYSGELKSFSIREFFILNKLAPSLHLSYDAEELPISVKPEKPVDVTDVMALLSETYEGTEYDMTKNLKVAVKKKDSNETDTIISPVANPWMTTDMVNMLNGLRPDAVKRYRLVAVPQCSYSTVIQLRDWLPDAVGGVVWMAYDNPGQSPRIPIFCGTKDLPACFKVCGQHRYREDAAVWAFRRANKLATVRWGATKDRMKASIAHFTEKGQTELPFVESRYKEILTQQGEEAAKEYLTGYTADFAGATMLRWREMGDSFWTQFERGF | not soluble
3 | MTEQSVKNTPQHETQSKPKQKTVKLIIKRQDTSDSKPYEETFEIPYRENLNVIACLMEIRRNPVNIKGEKTTPVVWDMNCLEEVCGACSMVINGRARQSCSAIVDQLEQPIRLEPMNTFPVIRDLQVDRSRMFDNLKRMKAWIPIDGTYDLGPGPRMPEKKRQTAYELSKCMTCGVCLEVCPNVTENNKFVGAQAISQVRLFNLHPTGSMTKDERLNALMGTGGLQQCGNSQNCVNACPKGIPLTTSIAAMNRETTFHMFKSFFGSDHEVE | not soluble
4 | MAHHHHHHMESGKNAHRLNRIFRKPKTMVAPRAWRPAADGEGERQQPFSGVSLQRINAMISELSEEERTRALAQQDPPTVVQEELAKRAARFGLTIERADAGNNEKTASSEITPEVQAVFQRRMERFGQSAAEEAMQKRVARFGNAATSAEGPGVELKLSEADREAMQRRQSRFGG | soluble
5 | MGSDKIHHHHHHMIIVAGTPGAGKTSVMTHTIKQLLNKGNKPAVVKIDCLYTDDDTRYGKLKIPTLVGLSKDMCPDHFAIYNLEEMAEWAEKEGVDTLIIETAGLCHRCAPYTKNSLGICVIDATSGPNTPRKVGPFLTSADVVAITKGDIISQAEREVFRERVLEMNPKCTIYDVNGLSGQGCAEISEEIMEAKDIVDLENEELRHNAPLCVCTLCVGETKVAKKHHRGVLRRIDGFTKYVGE | not soluble
6 | MYDVVVVGAGPAGSRYARQAASRGLDVVVFEQGEIGKPLACSGHVSTDIWEFTEDARDELFQNEISGARFHTGGPGSQDHPFYKDEVISNVIDRVGLDKHLAGLARDAGADVREAHSVVGVTEDRDGVTVEVRGDDGVETHRAKMVAGCDGPKSRVRRELDLPEPDELLHGVLGFSDEVDHGDFVDVHLTVPRFFAWRIPRGEAGVEYGLAVPPGDDARGRFEEFVDGYGVETDHRCSGLIPIGPPKRVTGRRSFLIGDAAAQTKPFTGGGIRYGMTAADHAAREIDPEDPATLGEYERAWRDDLRQEIRLGHAVRAGYSAPEPIQKAGMKAFEGEIGVHMDRPTTLFSREQLAALFSRSLEHHHHHH | soluble
7 | MIQLEKLTKHFGTKRVVHDASAQFDKGQVTAIIGPNGAGKSTLLSMASRLVNRDAGKVWIEQRELVEWNTKALAQKLAVLRQSNVLNMRFTVRELTAFGRFPYSQGKLTTQDEQIINQAIEYLDLETIQYQYLDELSGGQRQLAFIAMVMAQDTDYVFLDEPLNNLDIKHSLQIMSTLRRLAHELNKAVVVVIHDINFASCYADKIVALKKGEVVATGSVRDVIQSEVLSAIYDTPFNVIEMQGQRLCLYTLPT | not soluble
8 | MSLWTIMIGSKNRAKVHALQEVVIRDKIIVRSEAVPSDVASQPFSDQETIQGAINRANHCLSFDGVDYGVGLEGGVVRSEYGLFLCNWGALVSQTGDQWVAGGARVPLPQEVAHELEGGKELGDIMESLTKNPDVRMTDGAIGYLTDGEISRKAMFQHVVHLLIGQARRDGHLLRTVTHEGHHHHHH | soluble
9 | MELMIGRVVKSHGIRGEVAIEVTTEEPEIRFAQGEVLNGRQGGKEHSLTIASVRPHQNRLLVKFKEIADRTAADSLRGTRFFAAPLDDDVDDGFYDHELEGLAVIHGEEKIGEVSGVIHGPAQSLLEVTLESGKEVLIPFVHDIVPEVDLDAGTCVITPPEGLLELLEHHHHHH | soluble
10 | MSLEEDIQKQIIAAKEEAHDETIWGKPANDIITGIGNNSGVRPQRAIWEMVQNARDVSLNGKADIVFERQHDCFIFQHNGISFTNNTLEALILQTSSKVRNDSVQVGQYGTGFLTTHKLGLKFTLSSSVQLLENEQLFHHFSNFLIDRSSTDKKQMRDSLKKQIKITEEWARNPTIVSGPSSLTTFRYIQEHEVEKMNTKEAFKASSALAPYVIALNPCVNSISFVDNVEDCKELYIRKSTEIINTCDFYNVVKVTIDKCETESCDFTVLMLQSKETVEESGEPKVIVILPIKELESKSVAFALSKDVPNLFIYLPLLGTEQWGLNFIFHSPLFTCDKDSRDSLRFVGNGQNNDVDAERNKGIIQLADVIVSHYITENLSNIQDCMYLAKVAFNLHNSDEALANYYKSLQSSWVKKYESFPFVITKNGNIITRQAKVFDKELFDACLENKDLLTAVYNVTVQIYGTDYLPLETNMLFWSETLLQWYEAESFNPHLIHLSDIVEYIDKNNITTIGEENLWCIDNYIANSKQIGLFTKYKLLPTKNGELRVREDLLNPIIHDESLLKILDSLLPNDVASFIHTRFVLFEDVKIEEYDHNKVKESMRLLVSELSDLQKGHEIYRTNILAGLDVDSNKYEQNKLSDNHINALMGFYAYIVNIGGEAFQYKMIHLLADFYNIDLKSGEAYIKEIYDWRTVAPLLIKDALFRFTLMDSEGHHHHHH | not soluble
11 | MSSLCLQRLQEERKKWRKDHPFGFYAKPVKKADGSMDLQKWEAGIPGKEGTNWAGGVYPITVEYPNEYPSKPPKVKFPAGFYHPNVYPSGTICLSILNEDQDWRPAITLKQIVLGVQDLLDSPNPNSPAQEPAWRSFSRNKAEYDKKVLLQAKQYSK | soluble
12 | MMLSNFKRNKYQQHLAQLPRISQNADDVQTLHSPELFRTTLTNAILRAKKRVYIVALYLERDDGGIGILSAIYEAKRQCPELDVRVLVDWHRAQRGRIGTAAENTNADWYCDMAKKHPDTHFPIYGIPVNTREALGVLHLKGFIVDDTVIYSGASLNDVYLHQHQKYRYDRYQLIHNPVLADTMVQYIQTMLSAPAVQRLDHTDRPKSLEIKNDIKQFRQTLRTASYQAPECSANANELTVTPLVGLGKQSPLNKTIHHLMYCADEHLVICTPYFNMPALLVRNIIRLLRDGKKVEIIIGDKTANDFYIPEDQPFKIIGALPYLYEINLRRFLSRLERYIENQQLVVRLWKDGDNSFHLKGMWVDGKWQLLTGNNLNPRAWRLDLENAILIHDPQQVLLQQRLDELDTIRTHTHVVKSYTELESIAQYPVKVRKLIRRLRRIRIDRLISRILLEHHHHHH | not soluble
13 | MGSDKIHHHHHHMPHLFYGTAQNGEVIFDEREAHHMRVVRLKEGDVIEATDGNGFSYTCILKSLKKKTAAAKIVKVEEKEKEPTEKLSVVVPIGRWERTRFLIEKCVELGVDEIFFHKFERSQHEISLDKAKIVVREAAKQCKRYLFPKVSFLEKLEFSGNVITLDLDASQNLLDANLEGSITVVVGPEGGFSEKERELLRSSTTIVSLGKKILRFETAAILTVGYIALKKQKI | soluble
14 | MGSDKIHHHHHHMRRGELNERRDAIIRLLCAQDELSAQDLAARLNVSVQTIRTDLRELDEAALVQRRHGRVRLRQPSENIGYAPRMSVARSEKQQIAMAVKPMIEDGSRVALGTGTTVEACARQLAASHRDLFVATNNIHAVIALQGASGVSVSLAGGAVRLRDLDFVGAASRAFFADYMVDIAIFSCGGLSLSGDVLDYNTDEIAAREAISTCATRRVLVVDREKFGRALPCRKHMIWDYDVVVTGADFPREIMRKCQEAGCEVLRVATDERPLRA | not soluble
15 | MGSDKIHHHHHHMQTVQALLTAAKVDSAESPYDTIHIKVLYPAKNTDSNLEKNWGMLPVDAAQAPFPVVIFFNGFNCDAQKYQWLGIELAQTGLVVVMFNWVGESLPGLVSFTPGFEIEKRKREFYGTVPTASALPVILTKLAQLQSAGILSGTLDLEKIILGGHSEGGRVAMENANPNFFPQVVASFAYGSHTAGAVMLGYKPNTILPLPDTLPRLVIGGTHDGVIANSSAHFGLNTKDATTPVIRTFQEAIMGGRENSYLLLLRGANHFSIVDIVDSTLALPFKDIPATQPQEHFRLLLATIIHLFIDAHVRHQPEAFQKLEQLLIVTNPLIQSFERK | not soluble
16 | MFPEQQKEEFVSVWVRDPRIQKEDFWHSYIDYEICIHTNSMCFTMKTSCVRRRYREFVWLRQRLQSNALLVQLPELPSKNLFFNMNNRQHVDQRRQGLEDFLRKVLQNALLLSDSSLHLFLQSHLNSEDIEACVSGQTKYSVEEAIHKFALMNRRFPEEEEEGKKDADVEYDSESSSSGLGHSSDDSSSHGCKTSPALQES | soluble
17 | MDIRQMNRTHLDHWRGLRKQLWPGHPDDAHLADGEEILQADHLASFIAMADGVAIGFADASIRHDYVNGCDSSPVVFLEGIFVLPSFRQRGVAKQLIAAVQRWGTNKGCREMASDTSPENTISQKVHQALGFEETERVIFYRKRC | not soluble
18 | QKIEKQYDADLEQILIQWITTQCRKDVGRPQPGRENFQNWLKDGTVLCELINALYPEGQAPVKKIQASTMAFKQMEQISQFLQAAERYGINTTDIFQTVDLWEGKNMACVQRTLMNLGGLAVARDDGLFSGDPNWFPKKSKE | soluble
19 | MRAVVLKGFGGLEMLEERDLPVPEPGPGEVLVRNLAVAVNPVDAKIRAAGRWAGVEPPFVLGYDAAGVVAKVGPGVKDLKEGDEVYYTPEIFGNPHGTYAEYTPVPAGIVAKKPKNLSFAEAAAIPLAGGTAWKAVVRRLAVRPGETVLVMGGAGGVGSFAVQFAKAAGAYVIATASAENLPVLKELGADLALDYRGPWAEEVLKATEGQGVDAAFETAGESLVERVIPVVRPFGRIATILPPQGNLSGLYTKNQTLYGVFLTRERKRLLEMRPLFERGLARPLIAEVLPFSLENLRKAHARMDSGHGRGKIVLTFQA | soluble
20 | AAVIEKRATCSNGKTVGDASCCAWFDVLDDIQQNLFHGGQCGAEAHESIRLVFHDSIAISPAMEAQGKFGGGGADGSIMIFDDIETAFHPNIGLDEIVKLQKPFVQKHGVTPGDFIAFAGAVALSNCPGAPQMNFFTGRAPATQPAPDGLVPEPFHTVDQIINRVNDAGEFDELELVFMLSAHSVAAVNDVDPTVQGLPFDSTPGIFDSQFFVETQLRGTAFPGSGGNQGEVESPLPGEIRIQSDHTIARDSRTACEWQSFVNNQSKLVDDFQFIFLALTQLGQDPNAMTDCSDVIPQSKPIPGNLPFSFFPAGKTIKDVEQACAETPFPTLTTLPGPETSVQRIPPPPGA | soluble
21 | MAHHHHHHMEEQVDLEKALAVAIKAAQSAGNIMLEFYQLRREDTAAKMMRLLKEGGSHTTGELAASPKPTPVDLLDIKTKSSSTDLVTHYDKLCDETIMKILQRFNAKVEDEKRNEPSEAFSFQFITEELTPDTPLTDEPTWIVDPIDGTMSFVHGGCDCCISIGLAIKKQTVLAVVYCPFLSIVQHSVEDLRSTSAVAGELYTAIRGKGTFLNGQPIRVSADALPNTALVAFNYPMGARLSAAEIPSDSAQVGVLKRQKHRKVVEAAGHIREQLAMHPVQGIRSYGSCALILAQVAAGRIDLYMEPAGMVWDVCAGSLLITEAGGVVKNMWGGDFGLEGTTTIIAAANETLADYGIQLCTQVNYGDYWKK | soluble
